For the assay, the target named is T1, WAVE1 (1-230) (UniProt Q92558 1-230).
T1 construct: WAVE1 residues 1-230; also called WAVE1 N-terminus; source: E.coli, purified
T1 sequence (looked up): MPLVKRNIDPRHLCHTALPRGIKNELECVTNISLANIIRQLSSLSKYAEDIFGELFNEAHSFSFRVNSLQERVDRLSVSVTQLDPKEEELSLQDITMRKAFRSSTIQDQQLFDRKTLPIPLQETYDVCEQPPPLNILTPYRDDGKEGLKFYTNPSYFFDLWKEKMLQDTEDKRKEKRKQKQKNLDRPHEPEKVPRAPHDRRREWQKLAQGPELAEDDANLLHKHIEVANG
The assay is described as follows: SEC; Recombinant subunits expressed individually; CYFIP1-NCKAP1 dimer and BRK1-ABI1-NHSL1 (or WAVE1) trimer reconstituted; pentamers purified on SOURCE 15Q and Superdex 200 (24 ml column). The note with it: both partners purified.

B1: BRK1 (recombinant) (natural protein, UniProt Q8WUW1 1-75, looked up)
chain: MAGQEDPVQREIHQDWANREYIEIITSSIKKIADFLNSFDMSCRSRLATLNEKLTALERRIEYIEARVTKGETLT
notes: BRK1; source: E.coli, purified
In the case of B1, the binding result is on record as “binds”.

(Values after article PMC10272187, “PPP2R1A regulates migration persistence through the NHSL1-containing WAVE Shell Complex” (Nature Communications, 2023).)
